# According to US6403765B1, “Truncated Apaf-1 and methods of use thereof” (Thomas Jefferson University, priority 1998, dated 2002):
# T1: T7-tagged Apaf-530 (Homo sapiens, UniProt O14727)
# T1 construct: expressed in transfected cells; host or cells: 293 cells
# T1 sequence (O14727 1-530 isoform O14727-3): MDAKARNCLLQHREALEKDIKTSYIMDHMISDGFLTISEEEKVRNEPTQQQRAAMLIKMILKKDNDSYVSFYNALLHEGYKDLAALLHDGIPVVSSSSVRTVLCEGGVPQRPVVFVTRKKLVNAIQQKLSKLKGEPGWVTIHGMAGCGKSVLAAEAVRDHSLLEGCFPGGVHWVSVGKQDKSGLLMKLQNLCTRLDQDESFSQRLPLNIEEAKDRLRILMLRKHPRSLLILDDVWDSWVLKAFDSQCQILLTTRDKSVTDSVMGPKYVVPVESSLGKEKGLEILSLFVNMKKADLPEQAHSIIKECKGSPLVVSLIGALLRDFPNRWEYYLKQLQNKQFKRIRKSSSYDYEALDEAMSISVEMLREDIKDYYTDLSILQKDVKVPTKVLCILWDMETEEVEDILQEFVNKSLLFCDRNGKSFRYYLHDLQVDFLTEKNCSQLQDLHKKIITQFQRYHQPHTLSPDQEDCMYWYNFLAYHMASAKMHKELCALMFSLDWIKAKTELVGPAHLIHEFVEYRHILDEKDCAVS
# T2: procaspase-3 (Homo sapiens, UniProt P42574)
# T2 construct: made in house; host or cells: coupled in vitro transcription/translation in rabbit reticulocyte lysate (TNT Kit, Promega)
# T2 sequence (P42574 1-277): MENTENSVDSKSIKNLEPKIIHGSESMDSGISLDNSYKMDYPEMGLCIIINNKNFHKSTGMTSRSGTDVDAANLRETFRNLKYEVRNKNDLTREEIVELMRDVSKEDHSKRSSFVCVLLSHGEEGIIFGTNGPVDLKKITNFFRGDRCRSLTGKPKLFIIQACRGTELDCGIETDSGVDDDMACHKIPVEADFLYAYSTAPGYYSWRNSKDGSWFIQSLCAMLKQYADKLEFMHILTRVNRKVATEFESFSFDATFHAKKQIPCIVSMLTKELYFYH
# B1: Apaf-530: truncated Apaf-1 (residues 1-530) lacking its WD-40 repeats, recombinant (protein, UniProt O14727 1-530, looked up, fragment)
# chain: MDAKARNCLLQHREALEKDIKTSYIMDHMISDGFLTISEEEKVRNEPTQQQRAAMLIKMILKKDNDSYVSFYNALLHEGYKDLAALLHDGIPVVSSSSGKDSVSGITSYVRTVLCEGGVPQRPVVFVTRKKLVNAIQQKLSKLKGEPGWVTIHGMAGCGKSVLAAEAVRDHSLLEGCFPGGVHWVSVGKQDKSGLLMKLQNLCTRLDQDESFSQRLPLNIEEAKDRLRILMLRKHPRSLLILDDVWDSWVLKAFDSQCQILLTTRDKSVTDSVMGPKYVVPVESSLGKEKGLEILSLFVNMKKADLPEQAHSIIKECKGSPLVVSLIGALLRDFPNRWEYYLKQLQNKQFKRIRKSSSYDYEALDEAMSISVEMLREDIKDYYTDLSILQKDVKVPTKVLCILWDMETEEVEDILQEFVNKSLLFCDRNGKSFRYYLHDLQVDFLTEKNCSQLQDLHKKIITQFQRYHQPHTLSPDQEDCMYWYNFLAYHMASAKMHKELCALMFSLDWIKAKTELVGPAHLIHEFVEYR
# Columns and labels:
# [1] = target: T1, T7-tagged Apaf-530; experiment: Co-immunoprecipitation of Flag-tagged Apaf-1 variants with T7-tagged Apaf-530 in 293 cells; type: binding; conditions: anti-Flag immunoprecipitation, anti-T7 blot, 36 hours, FIG. 11
# Protocol: The ability of APAF-530 to oligomerize pro-caspase-9 was tested. Co-transfection experiments in 293 cells were performed with T7-tagged Apaf-530 and different Flag-tagged Apaf-1 variants, and cell lysates were prepared and immunoprecipitated with an anti-Flag antibody. The immunoprecipitates were analyzed by Western blotting with an anti-T7 antibody.
# In FIG. 11, 293 cells were co-transfected with constructs encoding T7-tagged Apaf-530 and an empty vector (lane 1) or constructs encoding Flag-tagged Apaf-1 (lane 2), Flag-tagged Apaf-530 (lane 3), Flag-tagged Apaf-530ΔCARD (lane 4) or Flag-tagged Apaf-97 (lane 5). After 36 hours, extracts were prepared and immunoprecipitated with a monoclonal antibody to the Flag epitope. The immunoprecipitates (upper panel) were analyzed by SDS-PAGE and immunoblotted with a horseradish peroxides-conjugated T7 antibody. The corresponding cellular extracts were also analyzed by SDS-PAGE and immunoblotted with a horseradish peroxides-conjugated T7 antibody (middle panel) or an anti-Flag antibody (lower panel).
# [2] = tested on: chimeric procaspase-3 with an N-terminal procaspase-9 prodomain; experiment: Processing of chimeric procaspase-3 by Apaf-530-bound caspase-9; type: biochemical; conditions: Apaf-530 in the absence of procaspase-9, FIG. 15
# Protocol: (§1) To achieve this, a chimeric procaspase-3 with an N-terminal caspase-9 prodomain was constructed. Caspase-9 prodomain in the chimera may allow recruitment of the chimeric procaspase-3 to the Apaf-530-caspase-9 complex. […] In FIG. 15, ^35S-labeled chimeric procaspase-3 with an N-terminal procaspase-9 prodomain (lanes 1-4) or WT procaspase-3 (lanes 5-8) were incubated with buffer or Apaf-530 in the presence or absence of a non-radiolabeled WT procaspase-9 and analyzed by SDS-PAGE followed by autoradiography.
# [3] = target: T2, procaspase-3; experiment: Processing of procaspase-3 by Apaf-530-bound caspase-9; type: biochemical; conditions: Apaf-530 with non-radiolabeled WT procaspase-9, FIG. 15
# Protocol: as §1
# [4] = target: T3, T7-tagged Bcl-xL (Homo sapiens, UniProt Q07817); experiment: Co-immunoprecipitation of Flag-tagged Apaf-1 variants or procaspase-9 with T7-tagged Bcl-xL in 293 cells; type: binding; conditions: anti-Flag immunoprecipitation, anti-T7 blot, 36 hours, FIG. 16
# T3 construct: expressed in transfected cells; host or cells: 293 cells
# Protocol: In vivo interaction experiments between Apaf-1 variants and Bcl-xL were performed. To analyze the ability of Apaf-1 to interact with Bcl-xL, 293 cells were co-transfected with constructs encoding T7-tagged Bcl-xL and constructs encoding Flag-tagged Apaf-97 (FIG. 16, lane 1), Apaf-1 (FIG. 16, lane 2), Apaf-530 (FIG. 16, lane 3) Apaf-530ΔCARD (FIG. 16, lane 4), or procaspase-9 C287A (FIG. 16, lane 5). After 36 hours, extracts were prepared and immunoprecipitated with a monoclonal antibody to the Flag epitope. The immunoprecipitates (FIG. 16, upper panel) were analyzed by SDS-PAGE and immunoblotted with a horseradish peroxidase-conjugated T7 antibody. The corresponding cellular extracts were also analyzed by SDS-PAGE and immunoblotted with a horseradish peroxides-conjugated T7 antibody (FIG. 16, middle panel) or an anti-Flag antibody (FIG. 16, lower panel).
# T3 sequence (Q07817 whole entry): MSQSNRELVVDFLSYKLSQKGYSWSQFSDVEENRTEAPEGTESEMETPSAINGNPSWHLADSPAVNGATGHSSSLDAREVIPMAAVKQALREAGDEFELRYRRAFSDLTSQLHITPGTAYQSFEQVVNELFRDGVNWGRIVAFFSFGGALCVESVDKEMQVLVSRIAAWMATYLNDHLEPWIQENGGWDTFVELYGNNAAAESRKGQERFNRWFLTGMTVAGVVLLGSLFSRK
molecule,measurement,setting,value
B1,co-immunoprecipitation with T7-Apaf-530,[1],co-immunoprecipitated
same,processing of chimeric procaspase-3,[2],no processing was observed
same,processing of WT procaspase-3,[3],no processing of procaspase-3 was observed
same,co-immunoprecipitation with Bcl-xL,[4],capable of immunoprecipitating Bcl-xL
